The source of these data is PMC11189471.

The target of test [1] is HpARI2_CCP2/3 (Heligmosomoides polygyrus bakeri). Kind of test: SPR; biotinylated HpARI2 variant (300-400 RU) captured on a Biotin CAPture chip, two-fold series of mIL-33 (or mIL-33 R159A) injected; Biacore T200, 25 °C, 20 mM Tris-Cl pH 8.0, 150 mM NaCl, 1 mM EDTA, 0.02% Tween-20, 1 mg/ml salmon sperm DNA; Langmuir 1:1 fit. Background: In SPR one partner is held on a chip, and binding of the other changes the refractive index at the surface.

Test [2] has as its target HpARI2_CCP2/3 (HpARI2 lacking CCP1) (Heligmosomoides polygyrus bakeri). Kind of test: SPR; biotinylated HpARI2 variant (300-400 RU) captured with the Biotin CAPture kit; two-fold series of IL-33 flowed at 40 µl/min; 25 °C; 20 mM Tris-Cl pH 8.0, 150 mM NaCl, 1 mM EDTA, 0.02% Tween-20, 1 mg/ml salmon sperm DNA; Langmuir fit.
Test [3] has as its target mouse IL-33 (residues 112-270) (mouse).
Test [4] shares this target. Kind of test: SPR; 1000-1200 RU ST2-Fc captured on a protein A/G-coated CM5 chip; mIL-33 (2 µM) alone or mixed with 2.5 µM HpARI2, HpARI2_CCP2/3 or HpARI2-LD flowed; 20 mM Tris-Cl pH 8.0, 150 mM NaCl, 1 mg/ml salmon sperm DNA, 0.02% Tween-20.
In test [5] the target is full-length HpARI2 (Alarmin Release Inhibitor, Heligmosomoides polygyrus bakeri) (Heligmosomoides polygyrus bakeri). Description: SPR; 400-450 RU biotinylated HpARI2 captured on the chip; two-fold series (1000 nM to 15.62 nM) of hIL-33 or hIL-33:S158R flowed.
Test [6] shares this target. Description: SPR; biotinylated HpARI2 variant (300-400 RU) captured with the Biotin CAPture kit; two-fold series of IL-33 flowed at 40 µl/min; 25 °C; 20 mM Tris-Cl pH 8.0, 150 mM NaCl, 1 mM EDTA, 0.02% Tween-20, 1 mg/ml salmon sperm DNA; Langmuir fit.
Test [7] has as its target HpARI2-LD (full-length HpARI2 with residues 180-188 of the CCP3 loop deleted) (Heligmosomoides polygyrus bakeri). The test is described as above.
Test [8] addresses HpARI2_CCP1/2 (HpARI2 lacking CCP3) (Heligmosomoides polygyrus bakeri). The description is as above.
The target in test [9] is HpARI2-LD (full-length HpARI2 with residues 180-188 of the CCP3 loop deleted) (Heligmosomoides polygyrus bakeri). Kind of test: SPR; screening of HpARI2 variants for mIL-33 binding at one concentration (legend: HpARI2 concentration of 100 nM); same reagents and equipment as the kinetic SPR; n = 3.

Usually Kd stands for the free concentration of one partner at which half of the binding sites on the other are occupied at equilibrium, for simple one-to-one binding. Low values mean a tighter complex, high ones a looser complex. As for mouse IL-33 R159A (ligand), the Kd in test [1] was found to be 3800 nM.
For mouse IL-33 R159A mutant (ligand), in test [2], the fold reduction in binding affinity against wild-type mIL-33 was 1000 fold.
As to “HpARI2-LD (full-length HpARI2 with residues 180-188 of the CCP3 loop deleted) (natural protein)”, the protein concentration needed for the same inhibition of IL-5 and IL-13 release as wild-type HpARI2 (bone marrow-derived ILC2s) in [3] amounted to 100 fold. This substance also returned a percent reduction of mIL-33 binding to ST2-Fc at 2.5 µM HpARI2-LD in test [4] of 25%.
In test [5], “human IL-33 (from UniProt O95760 1-270) (ligand)” had a Kd of 65 nM.
Substance “human IL-33 S158R mutant (from UniProt O95760) (ligand)” gave a fold increase of HpARI2 binding against human IL-33 in test [5] of over 100 fold.
Regarding mouse IL-33 (residues 112-270) (ligand), the Kd in test [6] came out at 0.048 nM; in test [7] it was 45 nM; in [2], 4 nM; in test [8], 49 nM. In [8], this substance gave a fold koff against full-length HpARI2 of over 100 fold. Also, the percent reduction of mIL-33 binding against HpARI2 in test [9] amounted to 60%.
